Test results as given in PMC13391367.

Target: UAP56 (UniProt Q13838 1-428)
Assay: pull-down (NeutrAvidin beads, RNA unclamping assay); ATP, 2 mM Mg2+; clamped UAP56-ADP-Pi-RNA complex, no release factor; RNA unclamping: 20 mM HEPES pH 7.9, 40 mM KCl, 2 mM MgCl2, 5% glycerol, 0.1% Igepal CA-630, 1 mM ATP at loading, room temperature, 500 mM KCl wash; cryo-EM: 25
Details: protein: recombinant; tags: 10xHis-3C (N-term); single strand

Chain of UAP56 (Q13838 whole entry): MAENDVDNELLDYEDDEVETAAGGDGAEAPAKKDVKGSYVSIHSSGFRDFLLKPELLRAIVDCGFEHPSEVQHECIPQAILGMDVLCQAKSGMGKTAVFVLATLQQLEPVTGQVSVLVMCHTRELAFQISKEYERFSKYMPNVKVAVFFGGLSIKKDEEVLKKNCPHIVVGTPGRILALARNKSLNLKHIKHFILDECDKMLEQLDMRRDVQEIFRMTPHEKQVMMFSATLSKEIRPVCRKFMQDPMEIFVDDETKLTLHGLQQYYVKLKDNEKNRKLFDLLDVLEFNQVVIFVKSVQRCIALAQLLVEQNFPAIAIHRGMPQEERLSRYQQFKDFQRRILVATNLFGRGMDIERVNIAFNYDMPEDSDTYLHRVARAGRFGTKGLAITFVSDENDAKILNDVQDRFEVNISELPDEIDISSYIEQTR

Binder: UUUUUUUUUUUUUUU (ssRNA) [biotinylated 15U RNA]
- binding result: binds
